Source: article doi:10.1101/2020.02.09.940833 (bioRxiv, 2020)

B1: SEC23A (natural protein)
chain: MTTYLEFIQQNEERDGVRFSWNVWPSSRLEATRMVVPVAALFTPLKERPDLPPIQYEPVLCSRTTCRAVLNPLCQVDYRAKLWACNFCYQRNQFPPSYAGISELNQPAELLPQFSSIEYVVLRGPQMPLIFLYVVDTCMEDEDLQALKESMQMSLSLLPPTALVGLITFGRMVQVHELGCEGISKSYVFRGTKDLSAKQLQEMLGLSKVPLTQATRGPQVQQPPPSNRFLQPVQKIDMNLTDLLGELQRDPWPVPQGKRPLRSSGVALSIAVGLLECTFPNTGARIMMFIGGPATQGPGMVVGDELKTPIRSWHDIDKDNAKYVKKGTKHFEALANRAATTGHVIDIYACALDQTGLLEMKCCPNLTGGYMVMGDSFNTSLFKQTFQRVFTKDMHGQFKMGFGGTLEIKTSREIKISGAIGPCVSLNSKGPCVSENEIGTGGTCQWKICGLSPTTTLAIYFEVVNQHNAPIPQGGRGAIQFVTQYQHSSGQRRIRVTTIARNWADAQTQIQNIAASFDQEAAAILMARLAIYRAETEEGPDVLRWLDRQLIRLCQKFGEYHKDDPSSFRFSETFSLYPQFMFHLRRSSFLQVFNNSPDESSYYRHHFMRQDLTQSLIMIQPILYAYSFSGPPEPVLLDSSSILADRILLMDTFFQILIYHGETIAQWRKSGYQDMPEYENFRHLLQAPVDDAQEILHSRFPMPRYIDTEHGGSQARFLLSKVNPSQTHNNMYAWGQESGAPILTDDVSLQVFMDHLKKLAVSSAA
B2: SEC23B (natural protein)
chain: MATYLEFIQQNEERDGVRFSWNVWPSSRLEATRMVVPLACLLTPLKERPDLPPVQYEPVLCSRPTCKAVLNPLCQVDYRAKLWACNFCFQRNQFPPAYGGISEVNQPAELMPQFSTIEYVIQRGAQSPLIFLYVVDTCLEEDDLQALKESLQMSLSLLPPDALVGLITFGRMVQVHELSCEGISKSYVFRGTKDLTAKQIQDMLGLTKPAMPMQQARPAQPQEHPFASSRFLQPVHKIDMNLTDLLGELQRDPWPVTQGKRPLRSTGVALSIAVGLLEGTFPNTGARIMLFTGGPPTQGPGMVVGDELKIPIRSWHDIEKDNARFMKKATKHYEMLANRTAANGHCIDIYACALDQTGLLEMKCCANLTGGYMVMGDSFNTSLFKQTFQRIFTKDFNGDFRMAFGATLDVKTSRELKIAGAIGPCVSLNVKGPCVSENELGVGGTSQWKICGLDPTSTLGIYFEVVNQHNTPIPQGGRGAIQFVTHYQHSSTQRRIRVTTIARNWADVQSQLRHIEAAFDQEAAAVLMARLGVFRAESEEGPDVLRWLDRQLIRLCQKFGQYNKEDPTSFRLSDSFSLYPQFMFHLRRSPFLQVFNNSPDESSYYRHHFARQDLTQSLIMIQPILYSYSFHGPPEPVLLDSSSILADRILLMDTFFQIVIYLGETIAQWRKAGYQDMPEYENFKHLLQAPLDDAQEILQARFPMPRYINTEHGGSQARFLLSKVNPSQTHNNLYAWGQETGAPILTDDVSLQVFMDHLKKLAVSSAC

Target: SAR1B (human, UniProt Q9Y6B6 1-198)
Sequence (Q9Y6B6 whole entry): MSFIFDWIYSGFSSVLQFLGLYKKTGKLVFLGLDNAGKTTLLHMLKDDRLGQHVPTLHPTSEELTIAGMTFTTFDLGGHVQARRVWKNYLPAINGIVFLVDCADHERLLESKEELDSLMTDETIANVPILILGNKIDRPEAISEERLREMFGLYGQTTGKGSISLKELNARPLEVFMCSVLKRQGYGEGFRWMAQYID
Assay: liposome flotation

Row | Binder | fold binding relative to SAR1A, with SEC31A-af added | fold recruitment relative to SAR1A
1 | B1 | ~5 fold | ~5 fold
2 | B2 | ~5 fold | ~5 fold
